# Test results published in publication PMC8671467, “A novel Bacillus ligniniphilus catechol 2,3-dioxygenase shows unique substrate preference and metal requirement” (Scientific Reports, 2021).
# Legend:
# CCc1cccc(O)c1O = experiment: purified protein; settings: 0.1 M Tris-HCl pH 7.4, 0.1 mM MnCl2, 32.5 °C, 20 µg/mL enzyme, 0.05-1.0 mM substrate
# Cc1cccc(O)c1O = experiment: purified protein; settings: 0.1 M Tris-HCl pH 7.4, 0.1 mM MnCl2, 32.5 °C, 40 µg/mL enzyme, 0.2-1.2 mM substrate
substance,measurement,setting,value
BLC23O (Halalkalibacterium ligniniphilum),Km,CCc1cccc(O)c1O,193 ± 17 µM
same,kcat,CCc1cccc(O)c1O,0.47 ± 0.09 s⁻¹
same,kcat/Km,CCc1cccc(O)c1O,2400 M⁻¹ s⁻¹
same,Km,Cc1cccc(O)c1O,418 ± 25 µM
same,kcat,Cc1cccc(O)c1O,0.2 ± 0.03 s⁻¹
same,kcat/Km,Cc1cccc(O)c1O,480 M⁻¹ s⁻¹
